What was measured:
Test in all cases: panning, LacI Gt library on immobilized ROS membranes
[1] = biological target: LacI fusion clone 18 (Gt library) (E. coli, UniProt P03023 1-360)
Protocol: (§1) For screening of the library by “panning,” rhodopsin receptors prepared according to Example 5 were immobilized directly on Immulon 4 (Dynatech) microtiter wells (0.1-1 μg of protein per well) in cold 35 mM HEPES, pH 7.5, containing 0.1 mM EDTA, 50 mM KCl and 1 mM dithiothreitol (HEK/DTT). After shaking for one hour at 4° C., unbound membrane fragments were washed away with HEK/DTT. The wells were blocked with 100 μl 2% BSA in HEKL (35 mM HEPES; 0.1 mM EDTA; 50 mM KCl; 0.2 M α-lactose; pH 7.5, with 1 mM DTT). For rounds 1 and 2, BSA was used for blocking; in later rounds 1% nonfat dry milk was used. For the first round of panning, about 24 wells of a 96-well plate were used. In subsequent rounds, 8 wells with receptor and 8 wells without receptor were prepared.
(§2) The Gt library was thawed (2 mL aliquot) and mixed with 6 mL lysis buffer on ice. Lysis buffer contains 4.25 mL HE (25 mM HEPES: 0.1 mM EDTA; pH 7.5); 1 mL 50% glycerol; 750 μL 10 mg/mL protease-free BSA in HE; 10 μL 0.5 M DTT; and 6.25 μL 0.2 M PMSF. Freshly prepared lysozyme solution (150 μL 10 mg/mL lysozyme in cold HE) was added and the tube was gently inverted several times and incubated on ice for no more than two minutes. The extent of lysis is evidenced by an increase in viscosity that can be observed by noting the slow migration of bubbles to the top of the tube after mixing. Lysis was terminated by mixing in 2 mL 20% lactose and 250 μL 2M KCl. The tube was centrifuged immediately at 13,000×g for 15 minutes at 4° C. and the supernatant transferred to a new tube. A small aliquot of 0.1% (the PRE sample) was saved in a separate, labeled tube. […] Immediately thereafter, the crude bacterial lysate from the peptide library (200 μL) was added to each well and allowed to shake gently for one hour at 4° C. For round 2, this same procedure was followed. In round 3, the amount of lysate used was reduced to 100 μL. In subsequent rounds, the lysate was diluted 1:10 in HEKL/BSA.

[2] = biological target: LacI fusion clone 23 (Gt library) (E. coli, UniProt P03023 1-360)
Protocol: as §1, §2

[3] = biological target: LacI fusion clone 24 (Gt library) (E. coli, UniProt P03023 1-360)
Protocol: as §1, §2

[4] = biological target: LacI fusion clone 3 (Gt library, light-activated rhodopsin screen) (E. coli, UniProt P03023 1-360)
Protocol: as §1, §2

[5] = biological target: LacI fusion clone 4 (Gt library) (E. coli, UniProt P03023 1-360)
Protocol: as §1, §2

[6] = biological target: LacI fusion clone 6 (Gt library) (E. coli, UniProt P03023 1-360)
Protocol: as §1, §2

[7] = biological target: LacI fusion clone 11 (Gt library) (E. coli, UniProt P03023 1-360)
Protocol: as §1, §2

[8] = biological target: T1, LacI fusion clone 13 (Gt library), … (E. coli, UniProt P03023 1-360)
T1 construct: also called L20
Protocol: as §1, §2

[9] = biological target: LacI fusion clone 14 (Gt library) (E. coli, UniProt P03023 1-360)
Protocol: as §1, §2

[10] = biological target: LacI fusion clone 15/28 (Gt library) (E. coli, UniProt P03023 1-360)
Protocol: as §1, §2

[11] = biological target: LacI fusion clone 16 (Gt library) (E. coli, UniProt P03023 1-360)
Protocol: as §1, §2

[12] = biological target: LacI fusion clone 17 (Gt library, light-activated rhodopsin screen) (E. coli, UniProt P03023 1-360)
Protocol: as §1, §2

[13] = biological target: LacI fusion clone 19 (Gt library) (E. coli, UniProt P03023 1-360)
Protocol: as §1, §2

[14] = biological target: LacI fusion clone 26 (Gt library, light-activated rhodopsin screen) (E. coli, UniProt P03023 1-360)
Protocol: as §1, §2

[15] = biological target: LacI fusion clone 27 (Gt library) (E. coli, UniProt P03023 1-360)
Protocol: as §1, §2

[16] = biological target: T2, LacI fusion clone 8 (Gt library) (E. coli, UniProt P03023 1-360)
T2 construct: also called Peptide 8; HAP
Protocol: as §1, §2

- binding result [1]: binds
- binding result [2]: binds
- binding result [3]: binds
- binding result [4]: binds
- binding result [5]: binds
- binding result [6]: binds
- binding result [7]: binds
- binding result [8]: binds
- binding result [9]: binds
- binding result [10]: binds
- binding result [11]: binds
- binding result [12]: binds
- binding result [13]: binds
- binding result [14]: binds
- binding result [15]: binds
- binding result [16]: binds
B1: light-activated bovine rhodopsin (metarhodopsin II) in rod outer segment membranes (receptor, UniProt P02699 1-348, looked up)
chain: MNGTEGPNFYVPFSNKTGVVRSPFEAPQYYLAEPWQFSMLAAYMFLLIMLGFPINFLTLYVTVQHKKLRTPLNYILLNLAVADLFMVFGGFTTTLYTSLHGYFVFGPTGCNLEGFFATLGGEIALWSLVVLAIERYVVVCKPMSNFRFGENHAIMGVAFTWVMALACAAPPLVGWSRYIPEGMQCSCGIDYYTPHEETNNESFVIYMFVVHFIIPLIVIFFCYGQLVFTVKEAAAQQQESATTQKAEKEVTRMVIIMVIAFLICWLPYAGVAFYIFTHQGSDFGPIFMTIPAFFAKTSAVYNPVIYIMMNKQFRNCMVTTLCCGKNPLGDDEASTTVSKTETSQVAPA
modifications: retinylidene chromophore on Lys-296 (all-trans after light)
notes: whole, on cells; also called MII
